Tests used:
[1] = biological target: T1, human PSMA (Prostate Specific Membrane Antigen, Glutamate Carboxypeptidase II) on cells (human, UniProt Q04609 1-750); test: flow cytometry cell binding, 22Rv1 cells
T1 construct: whole, on cells; the same molecule is used for all four PSMA positive cell lines; the cell line is named under assay; also called cell surface expressed PSMA; FOLH1

[2] = biological target: T1, human PSMA (Prostate Specific Membrane …); test: flow cytometry cell binding, LNCAP cells
[3] = biological target: T1, human PSMA (Prostate Specific Membrane …); test: flow cytometry cell binding, PC3-PSMA cells
[4] = biological target: T1, human PSMA (Prostate Specific Membrane …); test: cell-based or functional assay
[5] = biological target: T1, human PSMA (Prostate Specific Membrane …); test: flow cytometry cell binding, MDA-PCa-2b cells

T1 sequence (Q04609 whole entry): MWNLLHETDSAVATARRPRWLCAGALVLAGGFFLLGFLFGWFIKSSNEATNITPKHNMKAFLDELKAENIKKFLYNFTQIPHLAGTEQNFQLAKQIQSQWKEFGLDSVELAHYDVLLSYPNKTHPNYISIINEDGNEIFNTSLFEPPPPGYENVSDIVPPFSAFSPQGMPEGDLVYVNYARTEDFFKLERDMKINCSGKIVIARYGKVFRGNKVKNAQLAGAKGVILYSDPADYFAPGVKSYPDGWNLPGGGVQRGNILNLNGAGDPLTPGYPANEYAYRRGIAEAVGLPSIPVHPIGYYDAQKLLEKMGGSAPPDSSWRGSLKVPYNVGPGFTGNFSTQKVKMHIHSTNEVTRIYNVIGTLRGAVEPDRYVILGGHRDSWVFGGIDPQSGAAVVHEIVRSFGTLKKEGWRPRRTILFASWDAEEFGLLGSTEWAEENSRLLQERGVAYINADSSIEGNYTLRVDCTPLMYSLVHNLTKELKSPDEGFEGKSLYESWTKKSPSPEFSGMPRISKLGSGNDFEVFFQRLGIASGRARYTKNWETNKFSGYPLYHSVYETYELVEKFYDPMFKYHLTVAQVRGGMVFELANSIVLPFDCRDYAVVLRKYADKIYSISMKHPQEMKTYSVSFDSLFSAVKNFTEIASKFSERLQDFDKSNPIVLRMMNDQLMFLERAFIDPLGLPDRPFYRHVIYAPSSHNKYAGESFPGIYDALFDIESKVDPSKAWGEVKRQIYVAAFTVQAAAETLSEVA

Row | Binder | EC50 [1] [nM] | EC50 [2] [nM] | EC50 [3] [nM] | IFNγ EC50, 22Rv1 cells [4] [nM] | IFNγ EC50, LNCAP cells [4] [nM] | IFNγ EC50, MDA-PCa-2b cells [4] [nM] | IFNγ EC50, PC3-PSMA cells [4] [nM] | IL-2 EC50, LNCAP cells [4] [nM] | IL-2 EC50, MDA-PCa-2b cells [4] [nM] | IL-2 EC50, PC3-PSMA cells [4] [nM] | Kill EC50, 22Rv1 cells, resting T-cells [4] [nM] | Kill EC50, LNCAP cells, resting T-cells [4] [nM] | Kill EC50, MDA-PCa-2b cells, resting T-cells [4] [nM] | Kill EC50, PC3-PSMA cells, resting T-cells [4] [nM] | EC50 [5] [nM]
1 | 346181xCD3 monoparatopic PSMAxCD3 bispecific antibody (bispecific antibody, human IgG4 S228P, kappa, F234A L235A, three-chain antibody-like molecule; also called monoparatopic molecule) heavy 1: QLQLQESGPGLVKPSETLSLTCTVSGGSISSSNYFWGWIRQSPGKGLEWIGSIDYSGYTYYNPSLKSRVTISVDTSKNQFSLKLSSVTAADTAVYNCARHKAATADFDYRGQGTLVTVSSESKYGPPCPPCPAPEAAGGPSVFLFPPKPKDTLMISRTPEVTCVVVDVSQEDPEVQFNWYVDGVEVHNAKTKPREEQFNSTYRVVSVLTVLHQDWLNGKEYKCKVSNKGLPSSIEKTISKAKGQPREPQVYTLPPSQEEMTKNQVSLSCAVKGFYPSDIAVEWESNGQPENNYKTTPPVLDSDGSFFLVSRLTVDKSRWQEGNVFSCSVMHEALHNHYTQKSLSLSLGK heavy 2: EVQLVESGGGLVQPGRSLRLSCAASGFTFDDYAMHWVRQAPGKGLEWVSGISWNSGSIGYADSVKGRFTISRDNAKNSLYLQMNSLRAEDTALYYCAKDSRGYGDYRLGGAYWGQGTLVTVSSASTKGPSVFPLAPCSRSTSESTAALGCLVKDYFPEPVTVSWNSGALTSGVHTFPAVLQSSGLYSLSSVVTVPSSSLGTKTYTCNVDHKPSNTKVDKRVESKYGPPCPPCPAPEAAGGPSVFLFPPKPKDTLMISRTPEVTCVVVDVSQEDPEVQFNWYVDGVEVHNAKTKPREEQFNSTYRVVSVLTVLHQDWLNGKEYKCKVSNKGLPSSIEKTISKAKGQPREPQVYTLPPSQEEMTKNQVSLWCLVKGFYPSDIAVEWESNGQPENNYKTTPPVLDSDGSFFLYSRLTVDKSRWQEGNVFSCSVMHEALHNHYTQKSLSLSLGK light: not shown | 58 | 17 | 30 | 174 | 63 | 116 | 10.1 | 575 | 38.5 | 4.1 | 52.8 | 14.6 | 23.6 | 3.7 | 28
2 | 350123xCD3 biparatopic PSMAxCD3 multi-specific antibody (bispecific antibody, human IgG4 S228P, kappa, F234A L235A, also called biparatopic molecule) heavy 1: QLQLQESGPGLVKPSETLSLTCTVSGGSISSSNYFWGWIRQSPGKGLEWIGSIDYSGYTYYNPSLKSRVTISVDTSKNQFSLKLSSVTAADTAVYNCARHKAATADFDYRGQGTLVTVSSGGGGSGGGGSQVQLVESGGGVVQPGRSLRLSCAASGFSFSRYGMHWVRQAPGKGLEGVAVIWYDGSNRYYADSVKGRFTISRDNSKNTLYLQMNSLRAEDTAVYYCAREPRIGYYYESSGYYSLDYRGQGTLVTVSSESKYGPPCPPCPAPEAAGGPSVFLFPPKPKDTLMISRTPEVTCVVVDVSQEDPEVQFNWYVDGVEVHNAKTKPREEQFNSTYRVVSVLTVLHQDWLNGKEYKCKVSNKGLPSSIEKTISKAKGQPREPQVYTLPPSQEEMTKNQVSLSCAVKGFYPSDIAVEWESNGQPENNYKTTPPVLDSDGSFFLVSRLTVDKSRWQEGNVFSCSVMHEALHNHYTQKSLSLSLGK heavy 2: EVQLVESGGGLVQPGRSLRLSCAASGFTFDDYAMHWVRQAPGKGLEWVSGISWNSGSIGYADSVKGRFTISRDNAKNSLYLQMNSLRAEDTALYYCAKDSRGYGDYRLGGAYWGQGTLVTVSSASTKGPSVFPLAPCSRSTSESTAALGCLVKDYFPEPVTVSWNSGALTSGVHTFPAVLQSSGLYSLSSVVTVPSSSLGTKTYTCNVDHKPSNTKVDKRVESKYGPPCPPCPAPEAAGGPSVFLFPPKPKDTLMISRTPEVTCVVVDVSQEDPEVQFNWYVDGVEVHNAKTKPREEQFNSTYRVVSVLTVLHQDWLNGKEYKCKVSNKGLPSSIEKTISKAKGQPREPQVYTLPPSQEEMTKNQVSLWCLVKGFYPSDIAVEWESNGQPENNYKTTPPVLDSDGSFFLYSRLTVDKSRWQEGNVFSCSVMHEALHNHYTQKSLSLSLGK light: not shown | 3 | 2 | 6 | 380 | 3.29 | 0.9 | 1.01 | 3.73 | 1.11 | 1.1 | 0.42 | 0.84 | 0.41 | 0.4 | 2
